Data reported in patent US20210206832A1 (Regeneron, published 2021).

Assays:
[1] = target: T1, recombinant VEGF MiniTrap (dimer) MT5 (human); assay: affinity chromatography on the mAb1 column, repeated run, 19.6 mg MT5 loaded
T1 construct: also called VEGF MiniTrap 5
T1 chain: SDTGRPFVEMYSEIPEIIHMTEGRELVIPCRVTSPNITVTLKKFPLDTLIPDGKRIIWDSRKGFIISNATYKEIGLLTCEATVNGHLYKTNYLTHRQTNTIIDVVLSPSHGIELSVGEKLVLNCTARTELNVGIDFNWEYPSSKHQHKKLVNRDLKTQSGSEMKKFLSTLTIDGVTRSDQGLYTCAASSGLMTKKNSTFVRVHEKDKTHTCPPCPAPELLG

[2] = target: T1, recombinant VEGF MiniTrap (dimer) MT5; assay: affinity chromatography on the mAb1 column, repeated run, 19.7 mg MT5 loaded

B1: mAb1 (a mouse anti-VEGFR1 mAb human IgG1) (antibody)
heavy: not shown
light: DIQMTQSPSSLSASLGGKVTITCTTSQDSNNYIAWYQHKPGKGPRLLIHYASTLQPGIPSRFSGSGSGRDYSFSISNLEPEDIATYFCLQYDYLWTFGGGTKLELKRTVAAPSVFIFPPSDEQLKSGTASVVCLLNNFYPREAKVQWKVDNALQSGNSQESVTEQDSKDSTYSLSSTLTLSKADYEKHKVYACEVTHQGLSSPVTKSFNRGEC
Which “Eluate” value [1] does the source give for B1 here?
The value was 2 mg.

What about the “Eluate” value [2] of the same binder?
The value was 1.8 mg.
